Values joined by “and” are separate entries in the source; they are usually repeats but may differ in a detail not shown here. Identical values can stand only once. Like-named read-outs stand apart in the source and are kept apart here.
Key:
[1] = biological target: T1, human LAP-TGFB1 Fc fusion (human); experiment: SPR pH 7.4, antigen-Fc captured, Fab analyte
T1 construct: also called human LAP-TGFβ1-Fc; human LAP-TGFβ-Fc isoform 1

[2] = biological target: T1, human LAP-TGFB1 Fc fusion; experiment: SPR
[3] = biological target: T1, human LAP-TGFB1 Fc fusion; experiment: BLI off-rate screen
Procedure: (§1) The Fab mutants including a positive control, 20E6 Fab, and a negative control Fab (Molecular Innovations, catalog HU-FAB-4510) were diluted to 200 nM in assay buffer and loaded to FAB2G sensors for 180 seconds followed by a one-hour incubation at room temperature in assay buffer to equilibrate the tips. The Fab loaded sensors were assessed for binding with 100 nM human LAP-TGFβ for 180 seconds followed by a 180 second dissociation phase in assay buffer on a ForteBio HTX (software version 9.0.0.66). Non-specific binding to the negative control Fab was subtracted and the binding sensorgrams were aligned to the start of the association phase on the X and Y axis. The Fab binding was fit with the 1:1 binding model, dissociation phase only, with local fitting using ForteBio Data Analysis 9.0 software.

[4] = biological target: T1, human LAP-TGFB1 Fc fusion; experiment: SPR, antigen-Fc captured, Fab analyte
[5] = biological target: T1, human LAP-TGFB1 Fc fusion; experiment: BLI off-rate screen; remark: listed apart in the source
Procedure: as §1
Twenty-three variants containing a single tyrosine substitution in the light chain CDRs (at one of amino acid positions 24-31, 33, 34, 51-56, and 89-95 according to Kabat numbering scheme) and 21 similar heavy chain CDR variants (at amino acids positions 28-31, 33-35, 50-58 including 52a, 95, 96, 98, and 99 according to Kabat numbering scheme) were generated according to FIG. 1 and listed in Table 6 and their interactions with human LAP-TGFb1 were analyzed by ForteBio interferometry. […] In those sequences the VL is correct, even though these sequences are from the heavy chain. Thus, the VL_X ##Y refers to the position of the tyrosine mutation within the antibody, regardless of whether the sequence is a heavy or light chain.

[6] = biological target: T2, human LAP-TGFB3 Fc fusion (human); experiment: SPR
T2 construct: also called human LAP-TGFβ3; LAP-TGFβ isoform 3
T2 sequence (chain, as listed by the source limits assumed): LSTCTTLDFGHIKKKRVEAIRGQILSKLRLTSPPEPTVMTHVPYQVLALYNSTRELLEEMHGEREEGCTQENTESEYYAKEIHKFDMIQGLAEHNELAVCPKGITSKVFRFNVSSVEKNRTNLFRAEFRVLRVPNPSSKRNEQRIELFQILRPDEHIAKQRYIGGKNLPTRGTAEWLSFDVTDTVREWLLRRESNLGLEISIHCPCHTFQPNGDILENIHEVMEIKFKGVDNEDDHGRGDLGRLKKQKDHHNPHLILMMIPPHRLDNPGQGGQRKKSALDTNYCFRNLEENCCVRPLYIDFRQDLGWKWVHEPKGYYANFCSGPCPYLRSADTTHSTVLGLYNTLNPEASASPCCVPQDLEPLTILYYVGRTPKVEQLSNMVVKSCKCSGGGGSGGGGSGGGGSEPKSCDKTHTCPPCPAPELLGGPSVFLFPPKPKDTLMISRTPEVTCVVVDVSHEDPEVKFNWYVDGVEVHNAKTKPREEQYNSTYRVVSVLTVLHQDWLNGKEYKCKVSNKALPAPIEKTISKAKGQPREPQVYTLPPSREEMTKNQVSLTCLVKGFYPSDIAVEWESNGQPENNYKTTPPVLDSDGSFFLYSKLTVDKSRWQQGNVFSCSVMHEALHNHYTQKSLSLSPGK
Procedure: (§2) A Series S CM4 sensor chip (GE Healthcare, catalog BR100534) was immobilized with an anti-human Fc capture antibody following the kit protocol (GE Healthcare, catalog BR100839) on a Biacore T200 instrument with 1× HBS-EP+ (Teknova, catalog H8022). […] Binding specificity between human LAP-TGFβ isoforms 2 and 3 and the tyrosine scanning double mutants were performed in 1× HEPES-buffered saline with EDTA and surfactant (HBS)-EP)+with 0.1 mg/mL BSA at 25° C. […] The binding data were double referenced by subtraction of signal from a reference (capture surface only) flow cell and the negative control 0 nM Fab injection. Binding rate constants were determined by fitting the data with a 1:1 binding model (GE Healthcare Biacore T200 Evaluation software 3.0).

[7] = biological target: T3, human LAP-TGFB2 Fc fusion (human); experiment: SPR
T3 construct: also called human LAP-TGFβ2; LAP-TGFβ isoform 2
T3 sequence (chain, as listed by the source limits assumed): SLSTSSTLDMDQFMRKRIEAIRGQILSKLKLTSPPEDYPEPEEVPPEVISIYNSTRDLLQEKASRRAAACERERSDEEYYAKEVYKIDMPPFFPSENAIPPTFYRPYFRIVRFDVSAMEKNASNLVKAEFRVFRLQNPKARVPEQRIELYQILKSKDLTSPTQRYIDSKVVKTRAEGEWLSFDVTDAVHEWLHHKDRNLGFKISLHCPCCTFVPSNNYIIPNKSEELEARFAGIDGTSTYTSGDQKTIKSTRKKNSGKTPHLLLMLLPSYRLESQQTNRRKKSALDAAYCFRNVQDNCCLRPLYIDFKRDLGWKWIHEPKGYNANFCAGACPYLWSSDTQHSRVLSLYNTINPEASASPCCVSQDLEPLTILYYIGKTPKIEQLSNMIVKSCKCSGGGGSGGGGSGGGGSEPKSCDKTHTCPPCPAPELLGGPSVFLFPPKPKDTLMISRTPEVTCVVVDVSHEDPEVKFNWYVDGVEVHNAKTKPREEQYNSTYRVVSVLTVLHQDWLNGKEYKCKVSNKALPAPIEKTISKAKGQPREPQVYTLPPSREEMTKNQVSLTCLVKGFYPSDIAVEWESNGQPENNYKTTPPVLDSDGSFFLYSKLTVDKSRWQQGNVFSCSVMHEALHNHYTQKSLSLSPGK
Procedure: as §2

[8] = biological target: T1, human LAP-TGFB1 Fc fusion; experiment: SPR pH 6.0, antigen-Fc captured, Fab analyte
Method in brief: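 Biacore T200 SPR at pH 6.0 in HBS-EP+, antigen-Fc captured on anti-human Fc CM4 surface with Fab as analyte. Sensorgrams double-referenced against capture-only flow cell and 0 nM Fab injection; rate constants fitted to a 1:1 binding model.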

[9] = biological target: T1, human LAP-TGFB1 Fc fusion; experiment: SPR, antigen-Fc captured, Fab analyte; remark: listed apart in the source
Method in brief: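 Surface plasmon resonance on a Biacore T200 measured how Fab fragments bind human LAP-TGFβ fused to Fc. The Fc protein was captured on a Series S CM4 chip carrying immobilized anti-human Fc antibody, with Fab injected as analyte in 1× HBS-EP+. Signals were double referenced, and rate constants came from a 1:1 binding fit.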

[10] = biological target: T1, human LAP-TGFB1 Fc fusion; experiment: SPR pH 7.4, antigen-Fc captured, Fab analyte; remark: listed apart in the source
[11] = biological target: T4, human LAP-TGFβ1 (construct not stated) (human, UniProt P01137 30-390); experiment: KinExA, Fab as constant binding partner
T4 construct: also called human LAP-TGFβ isoform 1; titrant
T4 sequence (P01137 30-390 limits assumed): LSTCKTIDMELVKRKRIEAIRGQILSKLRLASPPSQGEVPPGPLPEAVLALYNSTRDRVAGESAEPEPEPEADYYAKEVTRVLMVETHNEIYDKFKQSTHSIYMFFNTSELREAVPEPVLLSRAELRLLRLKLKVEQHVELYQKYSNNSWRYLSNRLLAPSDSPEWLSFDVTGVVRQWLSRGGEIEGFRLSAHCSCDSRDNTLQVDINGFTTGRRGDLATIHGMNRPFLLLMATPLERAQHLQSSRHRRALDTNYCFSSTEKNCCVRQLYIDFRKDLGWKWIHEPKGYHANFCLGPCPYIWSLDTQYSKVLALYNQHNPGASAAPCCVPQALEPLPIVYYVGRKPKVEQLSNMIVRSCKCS
Procedure: An orthogonal kinetic exclusion assay (KinExA) method was used in this study to measure the affinity of an affinity-matured anti-LAP-TGF β1 Fab 69BJN (referred to as the constant binding partner, CBP) and human LAP-TGFβ1 (referred to as the titrant). […] Two equilibrium experiments were prepared in assay buffer (1× PBS, 1 mg/mL BSA, and 0.05% NaN₃) with 5 pM or 100 pM of 69BJN as CBP followed by mixing and equilibrating with 1:10 serially diluted human LAP-TGFβ1 from 10 nM to 1 pM including a negative control 0 nM. The KinExA method was performed as follows: PMMA beads were loaded into the flow cell, a single concentration of titrant human LAP-TGFβ1 at equilibrium with 69BJN CBP was flowed over the flow cell, free CBP bound by PMMA beads was detected with rabbit anti-human IgG, F(ab′)₂ fragment specific-647 conjugate (Jackson Immunoresearch, catalog 309-005-006). This method was repeated in duplicate over the entire concentration series for each of the two different equilibrium series. The binding signals were analyzed with KinExA Pro software (version 4.4.26) where the free CBP binding signals were converted into percent free response and plotted against the titrant concentration series. The equilibrium KD was determined by using the titrant concentration as a reference and calculating percent activity of the ligand (CBP).

[12] = biological target: T2, human LAP-TGFB3 Fc fusion; experiment: SPR; remark: listed apart in the source
Method in brief: (§3)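 Fc-tagged human LAP-TGFβ2 and 3 captured at ~20-40 RU on anti-human Fc surface in HBS-EP+ with 0.1 mg/mL BSA, 25° C; Fab injected at 1000 nM. Double-referenced against capture-only flow cell and 0 nM Fab; rate constants from 1:1 binding model fit.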

[13] = biological target: T3, human LAP-TGFB2 Fc fusion; experiment: SPR; remark: listed apart in the source
Method in brief: as §3

T1 sequence (chain, as listed by the source limits assumed): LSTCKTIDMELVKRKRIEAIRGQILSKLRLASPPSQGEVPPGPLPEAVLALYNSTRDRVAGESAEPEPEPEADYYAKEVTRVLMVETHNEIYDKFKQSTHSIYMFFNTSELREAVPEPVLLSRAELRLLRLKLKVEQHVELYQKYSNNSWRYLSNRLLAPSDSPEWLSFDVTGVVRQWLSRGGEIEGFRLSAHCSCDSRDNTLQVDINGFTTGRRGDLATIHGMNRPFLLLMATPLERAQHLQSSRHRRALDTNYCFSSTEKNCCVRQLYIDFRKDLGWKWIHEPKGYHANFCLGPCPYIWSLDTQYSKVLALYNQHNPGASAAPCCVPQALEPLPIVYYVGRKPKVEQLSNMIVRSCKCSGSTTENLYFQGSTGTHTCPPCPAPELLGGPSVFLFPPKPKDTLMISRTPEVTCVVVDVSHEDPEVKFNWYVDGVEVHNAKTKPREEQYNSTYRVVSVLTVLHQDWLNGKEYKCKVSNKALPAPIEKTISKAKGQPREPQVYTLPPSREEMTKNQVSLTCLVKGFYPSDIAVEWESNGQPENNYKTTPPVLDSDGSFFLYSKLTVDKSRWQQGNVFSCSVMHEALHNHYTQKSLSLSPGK

Binder | Fold improvement in KD [4] [fold] | Kd [4] [nM] | koff [4] [s⁻¹] | kon [4] [M⁻¹ s⁻¹] | binding result [6] | binding result [7] | Fold improvement in KD [9] [fold] | Kd [9] [nM] | koff [9] [s⁻¹] | kon [9] [M⁻¹ s⁻¹] | further results
20E6 Fab (80BGJ/85BIT) (Fab, V domains shown, also called 20E6 (80BGJ); 20E6 (85BIT)) VH: EVQLVQSGAEVKKPGASVKVSCKASGYTFTSYWMHWVRQAPGQGLEWMGRIDPQSGGIKYAQKFQGRATLTVDTSTSTAYMELSRLRSDDTAVYYCARWDYGGYFDVWGQGTLVTVSS VL: DIQMTQSPSSLSASVGDRVTITCRASQDITNYLNWYQQKPGKAVKLLIYYTSRLHSGVPSRFSGSGSGTDYTLTISSLQPEDFATYFCQQGDTLPWTFGQGTKLEIKR | 1 | 81.2 | 0.103 | 1.45e+06 | no binding (tested: 1000 nM Fab) | no binding (tested: 1000 nM Fab) | 1 | 79.9 | 0.0769 | 960000 | Kd [1]: 58.5 nM; koff [1]: 0.0769 s⁻¹; kon [1]: 1.32e+06 M⁻¹ s⁻¹; Fold change in KD from pH 7.4 to pH 6 [2]: 1.8 fold; koff [3]: 0.0468 s⁻¹ and 0.0381 s⁻¹; koff [5]: 0.0468 s⁻¹ and 0.0381 s⁻¹; Kd [8]: 103 nM; koff [8]: 0.096 s⁻¹; kon [8]: 934000 M⁻¹ s⁻¹; Fold improvement in KD [10]: 1 fold; Kd [10]: 58.5 nM; koff [10]: 0.0769 s⁻¹; kon [10]: 1.32e+06 M⁻¹ s⁻¹
69BJN (Fab, V domains shown, also called VH W33D I58T / VL T30Y R53V (69BJN)) VH: EVQLVQSGAEVKKPGASVKVSCKASGYTFTSYDMHWVRQAPGQGLEWMGRIDPQSGGTKYAQKFQGRATLTVDTSTSTAYMELSRLRSDDTAVYYCARWDYGGYFDVWGQGTLVTVSS VL: DIQMTQSPSSLSASVGDRVTITCRASQDIYNYLNWYQQKPGKAVKLLIYYTSVLHSGVPSRFSGSGSGTDYTLTISSLQPEDFATYFCQQGDTLPWTFGQGTKLEIKR |  |  |  |  |  |  | 695 | 0.115 | 0.000488 | 4.25e+06 | Kd [11]: 0.028 nM; binding result [12]: no binding (tested: 1000 nM Fab); binding result [13]: no binding (tested: 1000 nM Fab)

Further lines, with some results ahead:

Fold improvement in KD [4] [fold] | Kd [4] [nM] | koff [4] [s⁻¹] | kon [4] [M⁻¹ s⁻¹] | binding result [6] | binding result [7] | Fold improvement in KD [9] [fold] | Kd [9] [nM] | koff [9] [s⁻¹] | kon [9] [M⁻¹ s⁻¹] | Binder | further results
4 | 20.6 | 0.0134 | 650000 | no binding (tested: 1000 nM Fab) | no binding (tested: 1000 nM Fab) |  |  |  |  | VH W33Y/VL T93Y (92BJM) (Fab, V domains shown, also called VH33/VL93) VH: EVQLVQSGAEVKKPGASVKVSCKASGYTFTSYYMHWVRQAPGQGLEWMGRIDPQSGGIKYAQKFQGRATLTVDTSTSTAYMELSRLRSDDTAVYYCARWDYGGYFDVWGQGTLVTVSS VL: DIQMTQSPSSLSASVGDRVTITCRASQDITNYLNWYQQKPGKAVKLLIYYTSRLHSGVPSRFSGSGSGTDYTLTISSLQPEDFATYFCQQGDYLPWTFGQGTKLEIKR | 
7 | 11.8 | 0.0154 | 910000 | no binding (tested: 1000 nM Fab) | no binding (tested: 1000 nM Fab) |  |  |  |  | VH W33Y/VL R53Y (91BJM) (Fab, V domains shown, also called VH33/VL53) VH: EVQLVQSGAEVKKPGASVKVSCKASGYTFTSYYMHWVRQAPGQGLEWMGRIDPQSGGIKYAQKFQGRATLTVDTSTSTAYMELSRLRSDDTAVYYCARWDYGGYFDVWGQGTLVTVSS VL: DIQMTQSPSSLSASVGDRVTITCRASQDITNYLNWYQQKPGKAVKLLIYYTSYLHSGVPSRFSGSGSGTDYTLTISSLQPEDFATYFCQQGDTLPWTFGQGTKLEIKR | 
20 | 4 | 0.0075 | 1.89e+06 | no binding (tested: 1000 nM Fab) | no binding (tested: 1000 nM Fab) |  |  |  |  | VH W33Y/VL T30Y (90BJM) (Fab, V domains shown, also called VH33/VL30) VH: EVQLVQSGAEVKKPGASVKVSCKASGYTFTSYYMHWVRQAPGQGLEWMGRIDPQSGGIKYAQKFQGRATLTVDTSTSTAYMELSRLRSDDTAVYYCARWDYGGYFDVWGQGTLVTVSS VL: DIQMTQSPSSLSASVGDRVTITCRASQDIYNYLNWYQQKPGKAVKLLIYYTSRLHSGVPSRFSGSGSGTDYTLTISSLQPEDFATYFCQQGDTLPWTFGQGTKLEIKR | 
